The record followed here is publication doi:10.1101/669069.

Where “and” joins values, the source holds several entries; their conditions need not be identical. Equal entries are not always repeated.

Series [1] has as its target Methionine S-adenosyltransferase (MAT) from U. urealiticum (U. urealiticum). Briefly: native MS.
Series [2] has the same target. Nature of the series: crystal structure.
For series [3] the target is unchanged. Briefly: crystal structure. This is another data set of the same source.
Series [4] shares this target. Nature of the series: SEC-MALS.
The target is the same in series [5]. Briefly: SEC-MALS. The source holds these as a separate data set.
A short description of series [6]: stopped-flow tryptophan fluorescence, urea-induced dissociation kinetics. The conditions noted are these: other: stopped-flow tryptophan fluorescence.

With “Methionine S-adenosyltransferase (MAT) from U. urealiticum (enzyme)”, the stoichiometry N was 4 and 2 in series [1]; 4 in series [2]; 4 in series [3]; 4 in series [4]; 4 and 2 in series [5].
As to “Methionine S-adenosyltransferase (MAT) from U. urealiticum”, in series [6], the “kobs of urea-induced tetramer dissociation (3 M urea, with SAM)” value was “kobs ∼ 0.1sec^-1”.
